Like-named read-outs stand apart in the source and are kept apart here. Where a SMILES comes first, the peptide text is derived from it. Bridges are numbered along the chain shown (N, C = ends). Where no end group is shown, it is not given here. The star is where a group is joined. DOTA = O=C(O)CN1CCN(CC(=O)O)CCN(CC(=O)*)CCN(CC(=O)O)CC1
Tests used:
[1] = tested on: integrin receptors expressed on U87MG glioblastoma cells; assay: Competition binding with 125I-echistatin to U87MG cells; parameters: species or system human; conditions: competition with 0.06 nM 125I-echistatin, 2×10^5 U87MG cells, IBB, room temperature, 3 h, gamma counting; average ± SD of experiments on three separate days
Method: Competition binding assays were performed as previously described, [60] to measure the relative binding affinities of engineered knottin peptides and echistatin. Briefly, 2×10^5 U87MG or K562 cells were incubated with 0.06 nM ^125I-labeled echistatin and varying concentrations of peptides in IBB at room temperature for 3 h. The cell-bound radioactivity remaining after washing was determined by gamma-counting. Half-maximal inhibitory concentration (IC50) values were determined by non-linear regression analysis using KaleidaGraph software (Synergy Software), and are presented as the average of experiments performed on three separate days.

[2] = Serum stability in mouse serum (radio-HPLC); assay type: in vitro ADME; conditions: 50% mouse serum, 37°C, reversed-phase radio-HPLC (Vydac C18), area under the entire peak
Method: (§1) Aliquots containing up to 400 µCi of ^64Cu-DOTA-knottin 3-4A were incubated in 50% mouse serum for up to 24 h. At various time points, samples were mixed with an equal volume of 99.9% water/0.1% TFA, further acidified with ∼1% (v/v) TFA, and centrifuged to remove precipitants. Soluble fractions were filtered with a 0.2 µm microcentrifuge filter (Corning Costar Spin-X filter) and analyzed by reversed-phase radio-HPLC using a Vydac C18 column. For metabolic stability analysis, anesthetized nude mice bearing U87MG tumor xenografts were injected with 200–400 µCi of ^64Cu-DOTA-knottin 3-4A via the tail vein, and were euthanized at 1 h post injection. Tumor, kidney, and liver tissues were homogenized with a mortar/pestle in 1 ml DMF. The lysates were acidified, centrifuged, and filtered using a 0.2 µm Costar Spin-X microcentrifuge filter to isolate soluble metabolites. Filtrates were injected onto a Vydac C18 column and analyzed by reversed-phase HPLC. Fractions were collected every 1 min and analyzed by gamma counting to determine the counts per minute (cpm). Urine samples were collected 1 h post injection and were also analyzed by radio-HPLC. The intact radiotracer elutes at approximately 15 min, and the major hydrophilic metabolites and free copper elute with the column dead volume.

[3] = tested on: U87MG tumor xenografts; assay: MicroPET imaging in U87MG xenograft mice; assay type: in vivo, mouse
Method: (§2) Animal procedures were carried out according to a protocol approved by Stanford University Administrative Panels on Laboratory Animal Care (APLAC Protocol 11580). U87MG glioblastoma cells were maintained at 37°C/5% CO2 in Dulbecco's Modified Eagle Medium, 10% heat-inactivated fetal bovine serum, and penicillin-streptomycin (all from Invitrogen). Female athymic nude mice (nu/nu), obtained at 4–6 weeks of age (Charles River Laboratories, Inc., Wilmington, MA), were injected subcutaneously in the right or left shoulder with ∼10^7 U87MG cells suspended in 100 µL of PBS. Mice were used for in vivo imaging studies when their tumors reached approximately 10 millimeters in diameter.
U87MG tumor-bearing mice (n = 3 or more for each probe) were injected with ∼100 µCi (∼0.5 nmol) of probe via the tail vein and imaged with a microPET R4 rodent model scanner (Siemens Medical, Knoxville, TN) using 5 min static scans. Images were reconstructed by a two-dimensional ordered expectation maximum subset algorithm and calibrated as previously described. ROIs were drawn over the tumor on decay-corrected whole body images using ASIPro VM software (Siemens Medical). ROIs were converted to counts/g/min, and %ID/g values were determined assuming a tissue density of 1 g/mL. No attenuation correction was performed. For the blocking experiments, mice were co-injected with 330 µg (∼0.5 µmol) of unlabeled c(RGDyK), a pentapeptide that binds to αvβ3 and αvβ5 integrins, [62] at a similar receptor binding site as the engineered knottin peptides.

[4] = Biodistribution in U87MG xenograft mice (gamma counting); assay type: in vivo, mouse; conditions: female, athymic nude (nu/nu), mouse, iv, total radioactivity; for tissue to tissue ratio at 4 h: U87MG xenograft mice
Method: as §2
(§3) Anesthetized nude mice bearing U87MG tumor xenografts were injected with ∼50–100 µCi (∼0.25–0.5 nmol) of ^64Cu-DOTA-knottin 3-4A via the tail vein, and were euthanized at 1, 4, and 24 h post injection. Blood, bone, brain, heart, kidney, liver, lung, muscle, pancreas, skin, spleen, and tumor tissue were removed and weighed, and their radioactivity levels (counts per minute) were measured by gamma counting. The radioactivity uptake in the tumor and normal tissue was reported as the percent injected dose per gram (%ID/g) of tissue and represent the mean and standard deviation of experiments performed on three mice. For each mouse, the activity of tissue samples was calibrated against a pre-measured aliquot of the radiotracer and normalized to the whole bodyweight and to the residual radioactivity present in the tail. To test integrin-targeting specificity, U87MG tumor-bearing mice (n = 3) were co-injected with ^64Cu-DOTA-knottin 3-4A and 330 µg (∼0.5 µmol) of unlabeled c(RGDyK), and biodistribution of the radiolabeled peptide was determined 1 h after injection.

[5] = tested on: U87MG tumor xenografts; assay: as above; assay type: in vivo, mouse
Method: as §2, §3

[6] = In vivo metabolic stability in U87MG xenograft mice (radio-HPLC); parameters: species or system mouse
Method: as §1

[7] = tested on: MDA-MB-435 melanoma xenograft; assay: Tumor uptake in MDA-MB-435 melanoma xenograft model; assay type: in vivo; conditions: lower αvβ3 integrin levels, data not shown
[8] = tested on: integrin receptors expressed on U87MG glioblastoma cells; conditions: read-out: IC50, competition binding of 125I-echistatin to U87MG cells; cited from earlier work
Method: The engineered knottin peptides were tested for their ability to compete with ^125I-echistatin for binding to integrin receptors expressed on U87MG glioblastoma cells, which express ∼10^5 αvβ3 integrin receptors per cell. Echistatin, a polypeptide found in snake venom, binds to multiple integrin receptors with high affinity, [27] and was used as a positive control. […] Both engineered loops were capable of binding to integrins with high affinity, as confirmed by measurements performed with knottins containing scrambled RDG control loops. […] In one example, c(RGDyK) dimers and higher order oligomers have been created by chemical conjugation through addition of a glutamate branching residue.

[9] = U87MG xenograft mice, summary of imaging and biodistribution

## ECESGPCCRNCKFLKEGTICKRARGDDMDDYCNGKTCDCPRNPHKGPAT (disulfide 2-11, 7-32, 8-37, 20-39 (inferred)) [Echistatin, reference compound]
[1]
  IC50: 4.9 ± 0.1 nM

## CSCC[C@@H]1NC(=O)[C@H](CC(=O)O)NC(=O)CNC(=O)[C@H](CCCNC(=N)N)NC(=O)[C@H](C)NC(=O)[C@H](CCC(=O)O)NC(=O)[C@H](CCCNC(=N)N)NC(=O)[C@@H]2CSSC[C@@H]3NC(=O)[C@H](CO)NC(=O)[C@H]([C@@H](C)O)NC(=O)[C@@H]4CCCN4C(=O)[C@H](C)NC(=O)[C@H](Cc4c[nH]c5ccccc45)NC(=O)[C@H](CC(=O)O)NC(=O)CNC(=O)[C@H](CCCNC(=N)N)NC(=O)CNC(=O)[C@H](CCC(N)=O)NC(=O)[C@@H]4CCCN4C(=O)[C@@H](NC(=O)CNC(=O)CN4CCN(CC(=O)O)CCN(CC(=O)O)CCN(CC(=O)O)CC4)CSSC[C@H](NC(=O)CNC(=O)[C@H](C)NC(=O)[C@H](CC(C)C)NC(=O)[C@H](CSSC[C@@H](C(=O)NCC(N)=O)NC(=O)[C@H]([C@@H](C)O)NC(=O)[C@H](CCCNC(=N)N)NC(=O)[C@@H]4CCCN4C1=O)NC(=O)[C@H](CC(=O)O)NC(=O)[C@H](CO)NC(=O)[C@H](CC(=O)O)NC(=O)[C@H](CCC(N)=O)NC(=O)[C@H](CO)NC3=O)C(=O)N[C@@H](C(C)C)C(=O)N2 [DOTA-3-4A] ({DOTA}-GCPQGRGDWAPTSCSQDSDCLAGCVCREARGDMPRTCG-NH2; disulfide 2-24, 14-26, 20-37)
[1]
  IC50: 8 ± 1 nM

## CSCC[C@@H]1NC(=O)[C@H](CC(=O)O)NC(=O)CNC(=O)[C@H](CCCNC(=N)N)NC(=O)[C@H](C)NC(=O)[C@H](CCC(=O)O)NC(=O)[C@H](CCCNC(=N)N)NC(=O)[C@@H]2CSSC[C@@H]3NC(=O)[C@H](CO)NC(=O)[C@H]([C@@H](C)O)NC(=O)[C@@H]4CCCN4C(=O)[C@H](C)NC(=O)[C@H](Cc4c[nH]c5ccccc45)NC(=O)[C@H](CC(=O)O)NC(=O)CNC(=O)[C@H](CCCNC(=N)N)NC(=O)CNC(=O)[C@H](CCC(N)=O)NC(=O)[C@@H]4CCCN4C(=O)[C@@H](NC(=O)CNC(=O)CN4CCN(CC(=O)O)CCN(CC(=O)O)CCN(CC(=O)O)CC4)CSSC[C@H](NC(=O)CNC(=O)[C@H](C)NC(=O)[C@H](CC(C)C)NC(=O)[C@H](CSSC[C@@H](C(=O)NCC(N)=O)NC(=O)[C@H]([C@@H](C)O)NC(=O)[C@H](CCCNC(=N)N)NC(=O)[C@@H]4CCCN4C1=O)NC(=O)[C@H](CC(=O)O)NC(=O)[C@H](CO)NC(=O)[C@H](CC(=O)O)NC(=O)[C@H](CCC(N)=O)NC(=O)[C@H](CO)NC3=O)C(=O)N[C@@H](C(C)C)C(=O)N2 [^64Cu-DOTA-knottin 3-4A, metal not drawn] ({DOTA}-GCPQGRGDWAPTSCSQDSDCLAGCVCREARGDMPRTCG-NH2; disulfide 2-24, 14-26, 20-37)
[2]; 4 h, read-out: intact probe remaining in serum, 4 h
  remaining at 4 h: 55%
[2]; 24 h
  intact probe remaining in serum, 24 h: ~30%
[2]; 24 h, read-out: intact probe remaining in serum, 24 h
  remaining at 24 h: 30%
[3]; U87MG xenograft mice
  kidney uptake, microPET, 1 h post injection: 10-12 %ID/g
  kidney uptake, microPET, 24 h post injection: 3–4 %ID/g
[3]; U87MG xenograft mice, 1-24 h
  liver uptake, microPET, throughout the imaging study: ~2 %ID/g
[3]; [9]
  kidney uptake, 1−4 h post-injection (summary in discussion): 8–12 %ID/g
  kidney uptake, 24 h (summary in discussion): 2–4 %ID/g
  liver uptake (summary in discussion): 1–2 %ID/g
[3]; U87MG xenograft nude mice, tail vein ∼100 µCi, n = 3, mean ± SD
  tumor uptake, microPET, 1 h post injection: 3.51±0.83 %ID/g
[3]; U87MG xenograft nude mice, tail vein, n = 3, mean ± SD
  tumor uptake, microPET, 24 h post injection: 1.97±0.24 %ID/g
[3]; co-injection of 1000-fold molar excess of unlabeled c(RGDyK) (330 µg), p<0.05
  tumor uptake, microPET, 1 h post injection, blocked: 0.53± 0.03 %ID/g
[4]; calculated from 1 h and 24 h tumor radioactivity, read-out: radiotracer washout rate from tumor, biodistribution
  tumor washout rate: 0.06 %ID/g
[4]; tumor / muscle, read-out: tumor-to-muscle (T/M) ratio, 4 h post injection
  tissue to tissue ratio at 4 h: 31 ± 7
[4]; tumor / whole blood, read-out: tumor-to-blood (T/B) ratio, 4 h post injection
  tissue to tissue ratio at 4 h: 27 ± 3
[5]; U87MG xenograft mice
  muscle radioactivity, biodistribution: < 0.4 %ID/g
[5]; U87MG xenograft mice, 1-24 h
  heart radioactivity, biodistribution, throughout the study: ~0.3 %ID/g
[5]; U87MG xenograft mice, n = 3
  liver radioactivity, biodistribution, 1 h post injection: ~1 %ID/g
  liver radioactivity, biodistribution, 24 h post injection: ~2 %ID/g
  lung radioactivity, biodistribution, 1 h post injection: ~1 %ID/g
  lung radioactivity, biodistribution, 24 h post injection: ~0.6 %ID/g
[5]; U87MG xenograft mice, n = 3, mean ± SD
  kidney radioactivity, biodistribution, 24 h post injection: 2.67±0.22 %ID/g
[5]; U87MG xenograft nude mice, gamma counting, n = 3, mean ± SD
  tumor uptake, biodistribution, 24 h post injection: 2.56±0.40 %ID/g
[5]; U87MG xenograft nude mice, tail vein ∼50–100 µCi, gamma counting, n = 3, mean ± SD
  tumor uptake, biodistribution, 1 h post injection: 3.92±0.70 %ID/g
[5]; co-injection of 1000-fold molar excess of unlabeled c(RGDyK) (330 µg), n = 3, p<0.05
  tumor uptake, biodistribution, 1 h post injection, blocked: 0.66±0.17 %ID/g
[6]; U87MG xenograft mice, tail vein 200–400 µCi, liver homogenate in DMF, reversed-phase HPLC and gamma counting
  intact radiotracer recoverable from liver, 1 h post injection: < 40%
[6]; U87MG xenograft mice, tail vein 200–400 µCi, tumor homogenate in DMF, reversed-phase HPLC and gamma counting
  intact radiotracer recoverable from tumor, 1 h post injection: < 40%
[6]; kidney homogenate, radio-HPLC, result in words
  metabolic stability, kidneys, 1 h post injection: a hydrophilic metabolite (or free copper) is responsible for the majority of the radioactive signal
[6]; urine samples, radio-HPLC, result in words
  metabolic stability, urine, 1 h post injection: intact knottin radiotracer is excreted through the bladder
[7]
  tumor uptake, 1 h post injection: 0.82±0.05 %ID/g

## c(RGDyK)
[8]
  IC50: 203 ± 32 nM
